Here are results for one molecule from patent US20240018526, “DEOXYRIBONUCLEIC ACID-BASED BIOSENSOR AND ASSOCIATED METHODS” (FACible BioDiagnostics LLC, published 2024).

The data set deals with SARS-CoV-2 spike glycoprotein S1 (SARS-CoV-2, UniProt P0DTC2 P0DTC2:14-685).

B1: N6-D2-biotin aptamer (ssDNA)
DNA: CACGGTTCGAGCTGGTACTAAACTTCGCTAAACAACACGCAGCATTTCATCGGGTCCAAAAGGGGCTGCTCGGGATTGCGGATATGGACCCGTCAGCTTA
modifications: 5'-biotin (5BiosG), as SEQ ID NO 96
For the molecule B1, the binding result was “binds”.
